This experiment concerns proteins that co-immunoprecipitated with DUX4-CTD constructs expressed in MB135 myoblasts. Put plainly: LC-MS of proteins co-immunoprecipitated with DUX4-CTD (Table 1) and western validation. Format: binding, human. Set-up: key to 4. mL1dL2 + Dox + IFNG / 4. + IFNG mix / 4. longCTD + Dox + IFNG / 3. + IFNg + Dox longCTD / 3. + Dox longCTD / 3. + IFNG longCTD: peptide-spectrum matches (PSMs) per protein. The settings on record: for 3. + IFNg + Dox longCTD: experiment 3, IFNg + Dox; for SUM of PSMS: sum over all samples; for 4. longCTD + Dox + IFNG: LC-MS counts of the listed protein co-immunoprecipitated with DUX4-CTD bait longCTD. The method in brief:
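Two independent experiments compared uninduced, doxycycline and doxycycline+IFNG MB135iDUX4-CTD (plus MB135iDUX4mL1dL2) myoblasts. Anti-FLAG pulldowns (3 h, 4 °C) were eluted in LDS buffer for western validation or with FLAG peptide for trypsin digestion and Orbitrap LC-MS; hits needed ≥2 PSMs in both experiments, ranked by total PSMs.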

The mark [1] stands for this setting: LC-MS value per protein co-immunoprecipitated with DUX4-CTD construct mL1dL2 in MB135 myoblasts, + Dox + IFNG, kind of count not given.
Setting [2] is: LC-MS counts of the listed protein co-immunoprecipitated with DUX4-CTD bait mL1dL2, experiment 4, Dox + IFNG.
Where [3] appears, read: LC-MS counts of the listed protein in anti-FLAG co-IP, experiment 4, IFNG, no doxycycline, mix, MB135 myoblasts.
Setting [4] is: LC-MS value per protein co-immunoprecipitated from MB135 myoblasts, + IFNG mix sample (no Dox), kind of count not given.

B1: HNRNPH1 (protein)
chain: MMLGTEGGEGFVVKVRGLPWSCSADEVQRFFSDCKIQNGAQGIRFIYTREGRPSGEAFVELESEDEVKLALKKDRETMGHRYVEVFKSNNVEMDWVLKHTGPNSPDTANDGFVRLRGLPFGCSKEEIVQFFSGLEIVPNGITLPVDFQGRSTGEAFVQFASQEIAEKALKKHKERIGHRYIEIFKSSRAEVRTHYDPPRKLMAMQRPGPYDRPGAGRGYNSIGRGAGFERMRRGAYGGGYGGYDDYNGYNDGYGFGSDRFGRDLNYCFSGMSDHRYGDGGSTFQSTTGHCVHMRGLPYRATENDIYNFFSPLNPVRVHIEIGPDGRVTGEADVEFATHEDAVAAMSKDKANMQHRYVELFLNSTAGASGGAYEHRYVELFLNSTAGASGGAYGSQMMGGMGLSNQSSYGGPASQQLSGGYGGGYGGQSSMSGYGNQGAVNSSYYSSGSRASMGVNGMGGLSSMSSMSGGWGM
On to B1, for which, under setting [1], the “4. mL1dL2 + Dox + IFNG” value turned out to be 7.

B2: ASPH (protein)
chain: MAQRKNAKSSGNSSSSGSGSGSTSAGSSSPGARRETKHGGHKNGRKGGLSGTSFFTWFMVIALLGVWTSVAVVWFDLVDYEEVLGKLGIYDADGDGDFDVDDAKVLLGLKERSTSEPAVPPEEAEPHTEPEEQVPVEAEPQNIEDEAKEQIQSLLHEMVHAEHVEGEDLQQEDGPTGEPQQEDDEFLMATDVDDRFETLEPEVSHEETEHSYHVEETVSQDCNQDMEEMMSEQENPDSSEPVVEDERLHHDTDDVTYQVYEEQAVYEPLENEGIEITEVTAPPEDNPVEDSQVIVEEVSIFPVEEQQEVPPETNRKTDDPEQKAKVKKKKPKLLNKFDKTIKAELDAAEKLRKRGKIEEAVNAFKELVRKYPQSPRARYGKAQCEDDLAEKRRSNEVLRGAIETYQEVASLPDVPADLLKLSLKRRSDRQQFLGHMRGSLLTLQRLVQLFPNDTSLKNDLGVGYLLIGDNDNAKKVYEEVLSVTPNDGFAKVHYGFILKAQNKIAESIPYLKEGIESGDPGTDDGRFYFHLGDAMQRVGNKEAYKWYELGHKRGHFASVWQRSLYNVNGLKAQPWWTPKETGYTELVKSLERNWKLIRDEGLAVMDKAKGLFLPEDENLREKGDWSQFTLWQQGRRNENACKGAPKTCTLLEKFPETTGCRRGQIKYSIMHPGTHVWPHTGPTNCRLRMHLGLVIPKEGCKIRCANETKTWEEGKVLIFDDSFEHEVWQDASSFRLIFIVDVWHPELTPQQRRSLPAI
B2: under setting [1], the “4. mL1dL2 + Dox + IFNG” value is reported as 1.

B3: P04844 (protein, UniProt P04844 1-631, looked up)
chain: MAPPGSSTVFLLALTIIASTWALTPTHYLTKHDVERLKASLDRPFTNLESAFYSIVGLSSLGAQVPDAKKACTYIRSNLDPSNVDSLFYAAQASQALSGCEISISNETKDLLLAAVSEDSSVTQIYHAVAALSGFGLPLASQEALSALTARLSKEETVLATVQALQTASHLSQQADLRSIVEEIEDLVARLDELGGVYLQFEEGLETTALFVAATYKLMDHVGTEPSIKEDQVIQLMNAIFSKKNFESLSEAFSVASAAAVLSHNRYHVPVVVVPEGSASDTHEQAILRLQVTNVLSQPLTQATVKLEHAKSVASRATVLQKTSFTPVGDVFELNFMNVKFSSGYYDFLVEVEGDNRYIANTVELRVKISTEVGITNVDLSTVDKDQSIAPKTTRVTYPAKAKGTFIADSHQNFALFFQLVDVNTGAELTPHQTFVRLHNQKTGQEVVFVAEPDNKNVYKFELDTSERKIEFDSASGTYTLYLIIGDATLKNPILWNVADVVIKFPEEEAPSTVLSQNLFTPKQEIQHLFREPEKRPPTVVSNTFTALILSPLLLLFALWIRIGANVSNFTFAPSTIIFHLGHAAMLGLMYVYWTQLNMFQTLKYLAILGSVTFLAGNRMLAQQAVKRTAH
modifications: full-length
Consider B3, for which the “SUM of PSMS” value is 7. Further, under setting [2], the “4. mL1dL2 + Dox + IFNG” value is 3. Further, the “3. + IFNg + Dox longCTD” value (bait longCTD) was 4.

B4: P10809 (protein, UniProt P10809 1-573, looked up)
chain: MLRLPTVFRQMRPVSRVLAPHLTRAYAKDVKFGADARALMLQGVDLLADAVAVTMGPKGRTVIIEQSWGSPKVTKDGVTVAKSIDLKDKYKNIGAKLVQDVANNTNEEAGDGTTTATVLARSIAKEGFEKISKGANPVEIRRGVMLAVDAVIAELKKQSKPVTTPEEIAQVATISANGDKEIGNIISDAMKKVGRKGVITVKDGKTLNDELEIIEGMKFDRGYISPYFINTSKGQKCEFQDAYVLLSEKKISSIQSIVPALEIANAHRKPLVIIAEDVDGEALSTLVLNRLKVGLQVVAVKAPGFGDNRKNQLKDMAIATGGAVFGEEGLTLNLEDVQPHDLGKVGEVIVTKDDAMLLKGKGDKAQIEKRIQEIIEQLDVTTSEYEKEKLNERLAKLSDGVAVLKVGGTSDVEVNEKKDRVTDALNATRAAVEEGIVLGGGCALLRCIPALDSLTPANEDQKIGIEIIKRTLKIPAMTIAKNAGVEGSLIVEKIMQSSSEVGYDAMAGDFVNMVEKGIIDPTKVVRTALLDAAGVASLLTTAEVVVTEIPKEEKDPGMGAMGGMGGGMGGGMF
modifications: full-length
On to B4, for which the “SUM of PSMS” value came out at 17. Besides, the “4. longCTD + Dox + IFNG” value (experiment 4, Dox + IFNG) came to 5. Further, the “4. mL1dL2 + Dox + IFNG” value under setting [2] is 4. Also, under setting [3], the “4. + IFNG mix” value turned out to be 5. Moreover, the “3. + Dox longCTD” value (bait longCTD, experiment 3, Dox only) is listed as 1. For the same molecule, for the setting “bait longCTD”, the “3. + IFNg + Dox longCTD” value came to 2.

B5: RPN1 (protein)
chain: ASSEAPPLINEDVKRTVDLSSHLAKVTAEVVLAHLGGGSTSRATSFLLALEPELEARLAHLGVQVKGEDEEENNLEVRETKIKGKSGRFFTVKLPVALDPGAKISVIVETVYTHVLHPYPTQITQSEKQFVVFEGNHYFYSPYPTKTQTMRVKLASRNVESYTKLGNPTRSEDLLDYGPFRDVPAYSQDTFKVHYENNSPFLTITSMTRVIEVSHWGNIAVEENVDLKHTGAVLKGPFSRYDYQRQPDSGISSIRSFKTILPAAAQDVYYRDEIGNVSTSHLLILDDSVEMEIRPRFPLFGGWKTHYIVGYNLPSYEYLYNLGDQYALKMRFVDHVFDEQVIDSLTVKIILPEGAKNIEIDSPYEISRAPDELHYTYLDTFGRPVIVAYKKNLVEQHIQDIVVHYTFNKVLMLQEPLLVVAAFYILFFTVIIYVRLDFSITKDPAAEARMKVACITEQVLTLVNKRIGLYRHFDETVNRYKQSRDISTLNSGKKSLETEHKALTSEIALLQSRLKTEGSDLCDRVSEMQKLDAQVKELVLKSAVEAERLVAGKLKKDTYIENEKLISGKRQELVTKIDHILDAL
Regarding B5, the “4. + IFNG mix” value under setting [4] is 2. Also, the “4. mL1dL2 + Dox + IFNG” value under setting [1] turned out to be 7.

B6: SERPINH1 (protein)
chain: AEVKKPAAAAAPGTAEKLSPKAATLAERSAGLAFSLYQAMAKDQAVENILVSPVVVASSLGLVSLGGKATTASQAKAVLSAEQLRDEEVHAGLGELLRSLSNSTARNVTWKLGSRLYGPSSVSFADDFVRSSKQHYNCEHSKINFRDKRSALQSINEWAAQTTDGKLPEVTKDVERTDGALLVNAMFFKPHWDEKFHHKMVDNRGFMVTRSYTVGVMMMHRTGLYNYYDDEKEKLQIVEMPLAHKLSSLIILMPHHVEPLERLEKLLTKEQLKIWMGKMQKKAVAISLPKGVVEVTHDLQKHLAGLGLTEAIDKNKADLSRMSGKKDLYLASVFHATAFELDTDGNPFDQDIYGREELRSPKLFYADHPFIFLVRDTQSGSLLFIGRLVRPKGDKMRDEL
For B6, the “4. + IFNG mix” value under setting [4] was determined as 5. For the same molecule, the “4. mL1dL2 + Dox + IFNG” value under setting [1] came out at 5.

B7: P31947 (protein, UniProt P31947 1-248, looked up)
chain: MERASLIQKAKLAEQAERYEDMAAFMKGAVEKGEELSCEERNLLSVAYKNVVGGQRAAWRVLSSIEQKSNEEGSEEKGPEVREYREKVETELQGVCDTVLGLLDSHLIKEAGDAESRVFYLKMKGDYYRYLAEVATGDDKKRIIDSARSAYQEAMDISKKEMPPTNPIRLGLALNFSVFHYEIANSPEEAISLAKTTFDEAMADLHTLSEDSYKDSTLIMQLLRDNLTLWTADNAGEEGGEAPQEPQS
modifications: full-length
For the molecule B7, the “SUM of PSMS” value was 8. The “4. longCTD + Dox + IFNG” value (experiment 4, Dox + IFNG) is on record as 6. For the same molecule, the “4. + IFNG mix” value under setting [3] is reported as 1. Moreover, the “3. + IFNg + Dox longCTD” value (bait longCTD) is recorded as 1.

B8: PDIA3 (protein)
chain: SDVLELTDDNFESRISDTGSAGLMLVEFFAPWCGHCKRLAPEYEAAATRLKGIVPLAKVDCTANTNTCNKYGVSGYPTLKIFRDGEEAGAYDGPRTADGIVSHLKKQAGPASVPLRTEEEFKKFISDKDASIVGFFDDSFSEAHSEFLKAASNLRDNYRFAHTNVESLVNEYDDNGEGIILFRPSHLTNKFEDKTVAYTEQKMTSGKIKKFIQENIFGICPHMTEDNKDLIQGKDLLIAYYDVDYEKNAKGSNYWRNRVMMVAKKFLDAGHKLNFAVASRKTFSHELSDFGLESTAGEIPVVAIRTAKGEKFVMQEEFSRDGKALERFLQDYFDGNLKRYLKSEPIPESNDGPVKVVVAENFDEIVNNENKDVLIEFYAPWCGHCKNLEPKYKELGEKLSKDPNIVIAKMDATANDVPSPYEVRGFPTIYFSPANKKLNPKKYEGGRELSDFISYLQREATNPPVIQEEKPKKKKKAQEDL
For B8, under setting [4], the “4. + IFNG mix” value was found to be 9. Moreover, under setting [1], the “4. mL1dL2 + Dox + IFNG” value is listed as 3.

Values taken from US20250339531A1, “DUX4 POLYPEPTIDES AND NUCLEIC ACIDS FOR TREATING INFLAMMATORY AND AUTOIMMUNE CONDITIONS” (Fred Hutchinson Cancer Center, priority 2021, published 2025).
